assay: soluble on expression in E. coli; label from the status in PepcDB or PDB records

Sequence | soluble on expression in E. coli
MAKLLITGGCGFLGSNLASFALSQGIDLIVFDNLSRKGATDNLHWLSSLGNFEFVHGDIRNKNDVTRLITKYMPDSCFHLAGQVAMTTSIDNPCMDFEINVGGTLNLLEAVRQYNSNCNIIYSSTNKVYGDLEQYKYNETETRYTCVDKPNGYDESTQLDFHSPYGCSKGAADQYMLDYARIFGLNTVVFRHSSMYGGRQFATYDQGWVGWFCQKAVEIKNGINKPFTISGNGKQVRDVLHAEDMISLYFTALANVSKIRGNAFNIGGTIVNSLSLLELFKLLEDYCNIDMRFTNLPVRESDQRVFVADIKKITNAIDWSPKVSAKDGVQKMYDWTSSILEHHHHHH | soluble
PPCDSIVVAYYFCGEPIPYETLVRGRAVTLGQFKELLTKKGSYRYYFKKVSDEFDCGVVFEEVREDEAILPVFEEKIIGKVEKVD | soluble
MKTEKDKMLAGEMYIADDEELVADRVEAKRLTRLYNEAVETGDERRFTLLNQLLGSSADGKAQINPDFRCDYGYNIHVGKSFFANFNCVILDVCEVRIGDHCMFAPGVHIYTATHPLHPVERNSGKEYGKPVKIGNNVWVGGGAIINPGVSIGDNAVIASGAVVTKDVPNNVVVGGNPAKVIKTIEE | not soluble
MIIQDIIEAIEAVCPRAYQESYDNSGVQVGDTKREATGALLCVDVTEAVLEEAIRLGCNLVIAHHPILFKPLKRLTGSSYVERCVELAVRHGLVLYAAHTNADNAPQGLNALLAERFGLLNTRPLEPLQGKLLELVTFVPTEYADAVRQALWQAGAGRLGHYDCCSFSHAGTGTFRAAEGANPFVGAISELHHEAEERISLVLPAYRQGTVLQALHAAHPYELPAVSLIPLANDHPSAGGGIVGDLPSPISEREMLLHIKEVFGLKVLSHSAWRERPLRRMAICGGSGAFMWRRAAQEGADLFLTGEAKYNDFFDAGEHLLLVTIGHYESEEVANELFMRIISQKFPTFATHKSSVATNPVNYL | not soluble
MAQPKFVVAEIVEMEDHPDSDHLHICKVNVGFADPVQIVCGAPNAALGLKTVAALPGAMMPNGSLIFPGALRGVQSYGMLCSARELELPNAPEVRGIIELSSDLSAGKAFDSETMLEHHHHHH | not soluble
MYDTVRDRLIHLHHCRGAGWKTIHSLLKVDPTLTAPFSLPPNDLRPLVPLSDAQWTAFFHDLHSIDVQRVIKTYKGRCIRVITVFDSDYPPLLKYIYAPPWVLYAKGDSALLQEWKLISIVGTRRPTKEGIEALNKLVPPLVAAGFTIVSGLAFGIDVCAHQLAVQHGGSTIAVIAGGLDHIYPKEHRPFATLLMNEQLVIAEHPPATRPQAWQFPARNRIISGLSLGTLVVQAKRKSGSLITAAYALEQGREVFAVPGPIGLAESAGPNTLIQHGAKLVQEAADILDEFPYV | not soluble
MGHHHHHHSHRSSDCPYIVQFYGALFREGDCWICMELMSTSFDKFYKYVYSVLDDVIPEEILGKITLATVKALNHLKENLKIIHRDIKPSNILLDRSGNIKLCDFGISGQLVDSIAKTRDAGCRPYMAPERIDPSASRQGYDVRSDVWSLGITLYELATGRFPYPKWNSVFDQLTQVVKGDPPQLS | not soluble
METKPYLIALDLDGTLLKDDKTISENTLHTIQRLKDDGHYVCISTGRPYRSSSMYYQQMELTTPIVNFNGAFVHHPQDDSWGRYHTSLPLDVVKQLVDISESYNVHNVLAEVIDDVYFHYHDEHLIDAFNMNTTNVTVGDLRENLGEDVTSVLIHAKEEDVPAIRSYLSDVHAEVIDHRRWAAPWHVIEIIKSGMNKAVGLQKISDYYGVPRERIIAFGDEDNDLEMLEFAGCGVAMGNGIDAVKQIANRTTATNEEDGVARFLKEYFSL | soluble
MIIDCHGHYTTAPAAHDAFRKAQIAHHDDPQQPAPQYPHISDDALRESIEQHQLRLLRERGADMTIFSPRASTMAHHIGNEAVSQVWTQRCNDLIARVVQLYPHTFIGVCQLPQSPGVPISHSIAELERCVNELGFVGCNLNPDPSGGHWNGVPLTDRAWYPFFEKMVELDVPAMVHVSGSCNANFHATGAHYLNADTTAFMQFLEGDLFRDFPSLRFIIPHGGGAVPYHWGRFRGLADMLGKPPLATHVMRNVFFDTCVYHQPGIDLLFEVIDIDNILFGSEMVGAVRGIDPQTGHYFDDTKRYIDALTISDADKRKVFEGNARRVYPRLDAQLRARGLLEHHHHHH | not soluble
VSRAESNRTYSGQPVAERRVARRARFLDSALSVFAEKTYAHSSISDICAHAGLSRRQFYEEFGSREDILLALYDTIQDEARDAVLAANDRAPSRDPRTVAGTVMTAYIESVGTDERRARIIFVEVVGAGPRVEQYRLERRTQWAQLFETVTRTIDGGIVDPPERFEMVSIAFIGAVNDLAHHWSTASPRPSPSVLVDVLSTMLIALVTDQT | not soluble

Source: the DeepSol protein solubility set
